Key:
Experiment in all cases: SEC
[1] = target: MalE-DmxA^E626A (M. xanthus)
[2] = target: MalE-DmxA^GAF×2 (M. xanthus)
[3] = target: MalE-DmxA^R615A (M. xanthus)
[4] = target: MalE-DmxA^WT (M. xanthus)

Substance: MalE-DmxA^E626A (domain or fragment)
- stoichiometry N [1]: 2

Substance: MalE-DmxA^GAF×2 (domain or fragment)
- stoichiometry N [2]: 2

Substance: MalE-DmxA^R615A (domain or fragment)
- stoichiometry N [3]: 2

Substance: MalE-DmxA^WT (domain or fragment)
- stoichiometry N [4]: 2

From article doi:10.1101/2024.02.06.579105
